{"source": "patent US20150306174A1", "about": "(NEW YORK BLOOD CENTER, published 2015)", "key": {"[1]": {"target": "T1, C34 (HIV-1)", "T1 construct": "also called CHR-peptide C34; C-peptide C34", "experiment": "CD thermal denaturation monitored at 222 nm"}, "[2]": {"target": "T1, C34", "experiment": "CD spectroscopy of the N-peptide/C-peptide mixture in PBS"}}, "note": "Ends that are not written are not given here.", "data": [{"binder": "N28Fd trimer (designed binder, also: trimer, It gives the full length as 55 residues; also called FdN28Fd1) IEAQQHLLQLTVWGIKQLQARILAVERYGYIPEAPRDGQAYVRKDGEWVLLSTFL", "values": [{"measurement": "Tm of the complex", "setting": "[1]", "value": 62.2, "unit": "° C."}]}, {"binder": "IEAQQHLLQLTVWGIKQLQARILAVERY (Residue numbers count on HIV-1 HXB2 gp160; also called N28 peptide; free N28 peptide)", "note": "[N28]", "values": [{"measurement": "binding result", "setting": "[2]", "value": "no binding (tested: 10 µM)"}]}]}
